From patent US20190085033A1 (published 2019)

Molecular target: BG505-gp120
Experiment: SPR

B1: 4025 (antibody, V domains shown)
VH: EVQLVQSGAEVKKPGESLKISCKASGYSFSSYWIAWVRQMPGKGLEWMGFIYPADSDTRYSPSFQGQGTISADKSISTAYLQWSSLKASDTAMYYCAILGFWGANRGGGGMDVWGQGTTVIVSS
VL: SYELTQPPSVSVSPGQTARITCSGDALPEKYAYWYQQKSGQAPVLIIYEDSKRPSGIPERFSGSRSGTMATLTISGAQVDDEADYYCYSTNSGGTFFVFGTGTKVTVLG
B1 showed a Kd of 75 nM.
